The subject of data set [1] is TevN201-ZFE (synthetic). Kind of data set: cell_activity.
Data set [2] relates to I-BmoI. Kind of data set: cleavage_in_vitro. The following applies: one-site plasmid; two-site 0.096.
Sequence of I-BmoI (chain, as listed by the source): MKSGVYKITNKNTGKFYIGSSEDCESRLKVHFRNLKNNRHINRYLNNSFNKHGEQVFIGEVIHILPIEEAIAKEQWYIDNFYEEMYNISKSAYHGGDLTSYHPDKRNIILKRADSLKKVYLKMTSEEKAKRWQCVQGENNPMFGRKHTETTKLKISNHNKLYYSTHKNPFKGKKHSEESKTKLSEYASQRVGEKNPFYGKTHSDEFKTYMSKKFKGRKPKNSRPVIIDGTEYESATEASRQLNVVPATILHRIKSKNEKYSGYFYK

Sequence of TevN201-ZFE (synthetic) (chain, as listed by the source): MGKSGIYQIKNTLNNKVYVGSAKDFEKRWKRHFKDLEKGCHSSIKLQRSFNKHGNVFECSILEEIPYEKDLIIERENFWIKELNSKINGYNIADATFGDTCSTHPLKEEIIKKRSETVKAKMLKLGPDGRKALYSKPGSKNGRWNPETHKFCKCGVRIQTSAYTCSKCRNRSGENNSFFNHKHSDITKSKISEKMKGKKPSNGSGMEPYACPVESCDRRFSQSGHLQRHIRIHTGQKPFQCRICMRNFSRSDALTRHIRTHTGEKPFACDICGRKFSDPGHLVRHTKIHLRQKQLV

Substance “p11-lacY-wtx1 plasmid without target site” yielded an activity in data set [1] of 0 % survival.

As for pBmoIHS thyA homing site plasmid, the activity in data set [2] is 0.105 s-1 (kobs).
